Experimental data from the FLAb antibody collection (doi:10.1101/2023.12.08.570889).

Legend:
FXI = assay: Kd (SPR)
C5, P01031 = assay: Kd (SPR)

Binder | Kd (FXI) [nM] | Kd (C5, P01031) [nM]
unnamed (protein) chain 1: EVQLLESGGGLVQPGGSLRLSCAASGFTFSQYGMDWVRQAPGKGLEWVSGIGPSGGSTVYADSVKGRFTISRDNSKNTLYLQMNSLRAEDTAVYYCTRDGPWYYYGFDVWGQGTTVTVSS chain 2: DIQMTQSPSSLSASVGDRVTITCQASQDISNYLNWYQQKPGKAPKLLIYDASNLETGVPSRFSGSGSGTDFTFTISSLQPEDIATYYCQQADSFPVTFGGGTKVEIK | 46 | 
unnamed (protein) chain 1: EVQLLESGGGLVQPGGSLRLSCAASGFTFSQYGMDWVRQAPGKGLEWVSGIGPSGGSTVYADSVKGRFTISRDNSKNTLYLQMNSLRAEDTAVYYCTRGGPSYYYAFDVWGQGTTVTVSS chain 2: DIQMTQSPSSLSASVGDRVTITCQASQDISNYLNWYQQKPGKAPKLLIYDASNLETGVPSRFSGSGSGTDFTFTISSLQPEDIATYYCQQADSFPVTFGGGTKVEIK | 1370 | 
unnamed (protein) chain 1: EVQLLESGGGLVQPGGSLRLSCAASGFTFSQYGMDWVRQAPGKGLEWVSGIGPSGGSTVYADSVKGRFTISRDNSKNTLYLQMNSLRAEDTAVYYCTRDGSAYYYAFDYWGQGTTVTVSS chain 2: DIQMTQSPSSLSASVGDRVTITCQASQDISNYLNWYQQKPGKAPKLLIYDASNLETGVPSRFSGSGSGTDFTFTISSLQPEDIATYYCQQADSFPVTFGGGTKVEIK | 248 | 
unnamed (protein) chain 1: QVQLVQSGAEVKKPGASVKVSCKASGYIFSNYWIQWVRQAPGQGLEWMGEILPGSGSTEYTENFKDRVTMTRDTSTSTVYMELSSLRSEDTAVYYCARLRYGDTPYIYFDYWGQGTLVTVSS chain 2: DIQMTQSPSSLSASVGDRVTITCGASENIYGALNWYQQKPGKAPKLLIYGATNLADGVPSRFSGSGSGTDFTLTISSLQPEDFATYYCQNVLNTPLTFGQGTKVEIK |  | 2510
unnamed (protein) chain 1: QVQLVQSGAEVKKPGASVKVSCKASGYTFTSYWIQWVRQAPGQGLEWMGEIHPGSGYTEYTENFKDRVTMTRDTSTSTVYMELSSLRSEDTAVYYCARYRYGDTPDIYFDYWGQGTLVTVSS chain 2: DIQMTQSPSSLSASVGDRVTITCGASENIYGALNWYQQKPGKAPKLLIYGATNLADGVPSRFSGSGSGTDFTLTISSLQPEDFATYYCQNVLNTPLTFGQGTKVEIK |  | 597
unnamed (protein) chain 1: QVQLVQSGAEVKKPGASVKVSCKASGYTFTSYWIQWVRQAPGQGLEWMGEIHPGSGYTEYTENFKDRVTMTRDTSTSTVYMELSSLRSEDTAVYYCARYRYGDTPIIYFDYWGQGTLVTVSS chain 2: DIQMTQSPSSLSASVGDRVTITCGASENIYGALNWYQQKPGKAPKLLIYGATNLADGVPSRFSGSGSGTDFTLTISSLQPEDFATYYCQNVLNTPLTFGQGTKVEIK |  | 2300
unnamed (protein) chain 1: QVQLVQSGAEVKKPGASVKVSCKASGYIFSNYWIQWVRQAPGQGLEWMGEILPGSGSTEYTENFKDRVTMTRDTSTSTVYMELSSLRSEDTAVYYCARHYYGDTPDIYFDYWGQGTLVTVSS chain 2: DIQMTQSPSSLSASVGDRVTITCGASENIYGALNWYQQKPGKAPKLLIYGATNLADGVPSRFSGSGSGTDFTLTISSLQPEDFATYYCQNVLNTPLTFGQGTKVEIK |  | 1700
unnamed (protein) chain 1: QVQLVQSGAEVKKPGASVKVSCKASGYTFTSYWIQWVRQAPGQGLEWMGEIHPGSGYTEYTENFKDRVTMTRDTSTSTVYMELSSLRSEDTAVYYCARLRYGDTPIIYFDYWGQGTLVTVSS chain 2: DIQMTQSPSSLSASVGDRVTITCGASENIYGALNWYQQKPGKAPKLLIYGATNLADGVPSRFSGSGSGTDFTLTISSLQPEDFATYYCQNVLNTPLTFGQGTKVEIK |  | 3600
unnamed (protein) chain 1: QVQLVQSGAEVKKPGASVKVSCKASGYTFTSYWIQWVRQAPGQGLEWMGEIQPGSGYTEYTENFKDRVTMTRDTSTSTVYMELSSLRSEDTAVYYCARYRYGDTPIIYFDYWGQGTLVTVSS chain 2: DIQMTQSPSSLSASVGDRVTITCGASENIYGALNWYQQKPGKAPKLLIYGATNLADGVPSRFSGSGSGTDFTLTISSLQPEDFATYYCQNVLNTPLTFGQGTKVEIK |  | 622
unnamed (protein) chain 1: QVQLVQSGAEVKKPGASVKVSCKASGYTFTSYWIQWVRQAPGQGLEWMGEIHPGSGYTEYTENFKDRVTMTRDTSTSTVYMELSSLRSEDTAVYYCARYRYGDTPFIYFDYWGQGTLVTVSS chain 2: DIQMTQSPSSLSASVGDRVTITCGASENIYGALNWYQQKPGKAPKLLIYGATNLADGVPSRFSGSGSGTDFTLTISSLQPEDFATYYCQNVLNTPLTFGQGTKVEIK |  | 1190
unnamed (protein) chain 1: QVQLVQSGAEVKKPGASVKVSCKASGYIFSNYWIQWVRQAPGQGLEWMGEILPGSGSTEYTENFKDRVTMTRDTSTSTVYMELSSLRSEDTAVYYCARYEYGDTPYIYFDYWGQGTLVTVSS chain 2: DIQMTQSPSSLSASVGDRVTITCGASENIYGALNWYQQKPGKAPKLLIYGATNLADGVPSRFSGSGSGTDFTLTISSLQPEDFATYYCQNVLNTPLTFGQGTKVEIK |  | 915

Further lines, results first:

Kd (FXI) [nM] | Kd (C5, P01031) [nM] | Binder
 | 275 | unnamed (protein) chain 1: QVQLVQSGAEVKKPGASVKVSCKASGYIFSNYWIQWVRQAPGQGLEWMGEILPGSGSTEYTENFKDRVTMTRDTSTSTVYMELSSLRSEDTAVYYCARYEYGDTPIIYFDYWGQGTLVTVSS chain 2: DIQMTQSPSSLSASVGDRVTITCGASENIYGALNWYQQKPGKAPKLLIYGATNLADGVPSRFSGSGSGTDFTLTISSLQPEDFATYYCQNVLNTPLTFGQGTKVEIK
 | 251 | unnamed (protein) chain 1: QVQLVQSGAEVKKPGASVKVSCKASGYTFTSYWIQWVRQAPGQGLEWMGEIHPGSGETEYTENFKDRVTMTRDTSTSTVYMELSSLRSEDTAVYYCARYRYGDTPIIYFDYWGQGTLVTVSS chain 2: DIQMTQSPSSLSASVGDRVTITCGASENIYGALNWYQQKPGKAPKLLIYGATNLADGVPSRFSGSGSGTDFTLTISSLQPEDFATYYCQNVLNTPLTFGQGTKVEIK
 | 267 | unnamed (protein) chain 1: QVQLVQSGAEVKKPGASVKVSCKASGYTFTSYWIQWVRQAPGQGLEWMGEIHPGSGYTEYTENFKDRVTMTRDTSTSTVYMELSSLRSEDTAVYYCARYYYGDTPYIYFDYWGQGTLVTVSS chain 2: DIQMTQSPSSLSASVGDRVTITCGASENIYGALNWYQQKPGKAPKLLIYGATNLADGVPSRFSGSGSGTDFTLTISSLQPEDFATYYCQNVLNTPLTFGQGTKVEIK
 | 507 | unnamed (protein) chain 1: QVQLVQSGAEVKKPGASVKVSCKASGYTFTSYWIQWVRQAPGQGLEWMGEIKPGSGYTEYTENFKDRVTMTRDTSTSTVYMELSSLRSEDTAVYYCARYRYGDTPIIYFDYWGQGTLVTVSS chain 2: DIQMTQSPSSLSASVGDRVTITCGASENIYGALNWYQQKPGKAPKLLIYGATNLADGVPSRFSGSGSGTDFTLTISSLQPEDFATYYCQNVLNTPLTFGQGTKVEIK
 | 127 | unnamed (protein) chain 1: QVQLVQSGAEVKKPGASVKVSCKASGYIFSNYWIQWVRQAPGQGLEWMGEILPGSGSTEYTENFKDRVTMTRDTSTSTVYMELSSLRSEDTAVYYCARYYYGDTPYIYFDYWGQGTLVTVSS chain 2: DIQMTQSPSSLSASVGDRVTITCGASENIYGALNWYQQKPGKAPKLLIYGATNLADGVPSRFSGSGSGTDFTLTISSLQPEDFATYYCQNVLNTPLTFGQGTKVEIK
 | 126 | unnamed (protein) chain 1: QVQLVQSGAEVKKPGASVKVSCKASGYIFSNYWIQWVRQAPGQGLEWMGEILPGSGSTEYTENFKDRVTMTRDTSTSTVYMELSSLRSEDTAVYYCARYYYGDTPIIYFDYWGQGTLVTVSS chain 2: DIQMTQSPSSLSASVGDRVTITCGASENIYGALNWYQQKPGKAPKLLIYGATNLADGVPSRFSGSGSGTDFTLTISSLQPEDFATYYCQNVLNTPLTFGQGTKVEIK
 | 399 | unnamed (protein) chain 1: QVQLVQSGAEVKKPGASVKVSCKASGYTFTSYWIQWVRQAPGQGLEWMGEIHPGSGETEYTENFKDRVTMTRDTSTSTVYMELSSLRSEDTAVYYCARYRYGDTPYIYFDYWGQGTLVTVSS chain 2: DIQMTQSPSSLSASVGDRVTITCGASENIYGALNWYQQKPGKAPKLLIYGATNLADGVPSRFSGSGSGTDFTLTISSLQPEDFATYYCQNVLNTPLTFGQGTKVEIK
 | 293 | unnamed (protein) chain 1: QVQLVQSGAEVKKPGASVKVSCKASGYTFTSYWIQWVRQAPGQGLEWMGEIKPGSGYTEYTENFKDRVTMTRDTSTSTVYMELSSLRSEDTAVYYCARHEYGDTPIIYFDYWGQGTLVTVSS chain 2: DIQMTQSPSSLSASVGDRVTITCGASENIYGALNWYQQKPGKAPKLLIYGATNLADGVPSRFSGSGSGTDFTLTISSLQPEDFATYYCQNVLNTPLTFGQGTKVEIK
